Assay results published in patent publication US20190218268A1 (INDIANA UNIVERSITY RESEARCH AND TECHNOLOGY, published 2019).
Square brackets hold non-standard residues; d marks the D form. Ends that are not written are not given here. 3Pal = N[C@@H](Cc1cccnc1)C(=O)O; 4Pal = N[C@@H](Cc1ccncc1)C(=O)O; Aib = CC(C)(N)C(=O)O

Columns and labels:
Assay in all cases: cell-based or functional assay
[1] = target: glucagon receptor (co-transfected in HEK293 cells with a CRE-luciferase reporter)
human GLP-1 receptor = human GLP-1 receptor (human, UniProt P43220 24-463)
human glucagon receptor = human glucagon receptor (human, UniProt P47871 26-477)
Chain of human glucagon receptor (P47871 26-477): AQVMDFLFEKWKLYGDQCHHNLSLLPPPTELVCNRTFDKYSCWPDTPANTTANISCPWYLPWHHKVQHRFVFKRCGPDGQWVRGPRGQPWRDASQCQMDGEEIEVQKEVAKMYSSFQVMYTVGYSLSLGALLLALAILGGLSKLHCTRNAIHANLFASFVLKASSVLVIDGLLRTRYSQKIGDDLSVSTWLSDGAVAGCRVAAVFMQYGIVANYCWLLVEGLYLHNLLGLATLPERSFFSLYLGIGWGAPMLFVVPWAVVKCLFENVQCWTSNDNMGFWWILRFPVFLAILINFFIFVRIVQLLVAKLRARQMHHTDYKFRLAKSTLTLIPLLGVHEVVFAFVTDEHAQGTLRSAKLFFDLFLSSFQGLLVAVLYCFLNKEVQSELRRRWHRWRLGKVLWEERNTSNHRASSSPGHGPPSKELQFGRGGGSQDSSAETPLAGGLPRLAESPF

| Binder | % bioactivity of GCG [1] | EC50 [nM] (SDV), luciferase-based glucagon receptor cAMP reporter assay [1] | hGLP-1R EC50 (pM) (human GLP-1 receptor) | hGcgR EC50 (pM) (human glucagon receptor) |
| --- | --- | --- | --- | --- |
| HSQGTFTSD[3Pal]SKYLD[Aib]RRAQDFVQWLMNT [Glucagon analog 4] | 76% | 0.0268 nM |  |  |
| HSQGTFTSD[4Pal]SK[4Pal]LD[Aib]RRAQDFVQWLMNT [Glucagon analog 8] | 66% | 0.0309 nM |  |  |
| HSQGTFTSD[3Pal]SK[3Pal]LD[Aib]RRAQDFVQWLMNT [Glucagon analog 7] | 57% | 0.0359 nM |  |  |
| HSQGTFTSDYSK[4Pal]LD[Aib]RRAQDFVQWLMNT [Glucagon analog 6] | 60% | 0.0339 nM |  |  |
| HSQGTFTSDYSK[3Pal]LD[Aib]RRAQDFVQWLMNT [Glucagon analog 5] | 54% | 0.0379 nM |  |  |
| HSQGTFTSDXSKYLDXRRAXDFVQWLMNT (3-Pal at position 10; Aib at position 16; dGln at position 20) [Glucagon analog 3-Pal10, Aib16, q20 (SEQ ID NO: 971)] |  |  | > 10000 pM | 86 pM |

Other lines, results leading:

| % bioactivity of GCG [1] | EC50 [nM] (SDV), luciferase-based glucagon receptor cAMP reporter assay [1] | hGLP-1R EC50 (pM) (human GLP-1 receptor) | hGcgR EC50 (pM) (human glucagon receptor) | Binder |
| --- | --- | --- | --- | --- |
|  |  | > 10000 pM | 18 pM | HSQGTFTSDYSKYLD[Aib]RRA[dQ]DFVQWLMDE [Glucagon analog Aib16, q20, D28, E29 (SEQ ID NO: 981)] |
| 24% | 0.0843 nM |  |  | HSQGT[4Pal]TSD[4Pal]SK[4Pal]LD[Aib]RRAQDFVQWLMNT [Glucagon analog 10] |
| 28% | 0.0714 nM |  |  | HSQGT[3Pal]TSD[3Pal]SK[3Pal]LD[Aib]RRAQDFVQWLMNT [Glucagon analog 9] |
|  |  | 7480 pM | 33 pM | HSQGTFTSDYSKYLD[Aib]RRA[dQ]DFVQWLMDT [Glucagon analog Aib16, q20, D28 (SEQ ID NO: 980)] |
| 1% | 2.33 nM |  |  | HSQGT[3Pal]TSD[3Pal]SK[3Pal]LD[Aib]RRAQD[3Pal]VQWLMNT [Glucagon analog 11] |
